Measured values reported in patent US12072338B2, “Pharmaceutical peptides for the treatment of inflammatory diseases” (PROTAGONISTS LTD., priority 2007, dated 2024).
Each block holds one substance with its values, some of them ahead of it.

What was measured:
Eotaxin = target: T1, Eotaxin (Homo sapiens, UniProt P51671); experiment: Micro-array analysis of chemokine binding peptides: Eotaxin
T1 construct: purchased 300-21
Method: (§1) (1) Printing: Chemokine (CK) solution (in water) was serially diluted with Print Reagent (GenTel BioSurfaces USA) to final concentrations of 50 μg and 25 μg/ml. BSA/BSA-Biotin control solutions (in water) were diluted with Print Reagent to 100 μg/ml. Amplified stock of M13 phage control (M13KEgIII Cloning Vector, New England Biolabs, Cat.No.E8101S) was stored in Tris Buffered Saline (TBS; pH7.5, 4° C.) and diluted with Print Reagent to the working titre (10^8 pfu/μl). An automated spotting robot (16 pin print tool, 0.4 mm head; BioRobotics, UK) was used to print the CK/BSA control/M13 control, 5 repeats per sample (CK 25 μg/ml and 50 μg/ml; BSA 100 μg/ml; M13 20 μl), on PATH Protein Microarray Slides (GenTel, Prod.No. 2-1005/-1025) at […], and 50-70% relative humidity. Printed micro-array slides were stored at Room Temperature (RT) or 4° C. for at least 24 h before use.
(§2) (2) Blocking: Block Buffer (500 μl/partition; PATHblock, GenTel, Prod.No. 2-1014) was applied to the slide for 1 hour at room temp (RT). After removal of Block Buffer, the slide was air dried for 25 minutes;
(§3) (3) Phage Presented Peptide Binding: Amplified recombinant phage stock was stored in TBS and diluted with Wash Buffer to working titer (10^7 pfu/μl). Recombinant phage suspension (300 μl) was applied per partition and incubated at RT for 1 hour with gentle agitation.
(§4) (4) First Washing: The slides were washed twice with Wash Buffer 300 μl/partition).
(§5) (5) Primary Antibody (Ab) Labeling: The slides were incubated with the Primary Ab (1 mg/ml diluted ×2500 (Wash Reagent), 300 μl; Mouse Anti-M13 monoclonal Ab; Amersham Biosciences, UK; Product Code 27-9420-01) for 45 minutes at RT.
(§6) (6) Second Washing: The slides were washed twice with Wash Buffer (300 μl/partition).
(§7) (7) Secondary Ab Labeling: The slides were incubated with Secondary Ab (1.5 mg/ml diluted ×5000 (Wash Reagent), 300 μl; Cy3-conjugated AffiniPure Goat Anti-Mouse IgG; Jackson ImmunoReserch Labs, USA; Product Code 115-165-062).
(§8) (8) Third Washing: The slides were washed twice with Wash Buffer (300 μl/partition).
(§9) (9) Rinse: the slides were rinsed twice with Rinse Buffer (PATHrinse, GenTel, Prod.No. 2-1018) then dried well.
(§10) (10) Scanning: The peptide-bound, labeled slide was scanned (Laser Intensity 80%, Gain 80%, Resolution 10 μm) with a ScanArray Life Scanner (Packard BioChip Technologies, USA).
(§11) (11) Analysis: Quantitative analysis of micro-array was performed by the SpotReader program of Niles Scientific (USA) and presented as Relative Fluorescence (RF) as a function of CK concentration. Micro-array readout (Cy3 fluorescence) was quantified to determine the relative binding affinities of a CBP for the CKs and by inference, the specificity of the CBP for binding to a CK.

BCA-1 = target: T2, BCA-1 (Homo sapiens, UniProt O43927); experiment: Micro-array analysis of chemokine binding peptides: BCA-1
T2 construct: purchased 300-47
T2 sequence (O43927 23-109): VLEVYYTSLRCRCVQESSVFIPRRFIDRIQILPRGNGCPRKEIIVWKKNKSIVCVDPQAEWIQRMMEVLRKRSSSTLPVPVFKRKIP
Method: as §1, §2, §3, §4, §5, §6, §7, §8, §9, §10, §11

I-TAC = target: T3, I-TAC (Homo sapiens, UniProt O14625); experiment: Micro-array analysis of chemokine binding peptides: I-TAC
T3 construct: purchased 300-46
T3 sequence (O14625 22-94): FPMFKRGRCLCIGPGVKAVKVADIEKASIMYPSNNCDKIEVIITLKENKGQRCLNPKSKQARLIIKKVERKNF
Method: as §1, §2, §3, §4, §5, §6, §7, §8, §9, §10, §11

I-309 = target: T4, I-309 (Homo sapiens, UniProt P22362); experiment: Micro-array analysis of chemokine binding peptides: I-309
T4 construct: purchased 300-37
T4 sequence (P22362 24-96): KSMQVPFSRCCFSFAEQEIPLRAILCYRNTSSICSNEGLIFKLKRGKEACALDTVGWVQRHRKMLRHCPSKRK
Method: as §1, §2, §3, §4, §5, §6, §7, §8, §9, §10, §11

Exodus-2 = target: T5, Exodus-2 (Homo sapiens, UniProt O00585); experiment: Micro-array analysis of chemokine binding peptides: Exodus-2
T5 construct: purchased 300-35
T5 sequence (O00585 24-134): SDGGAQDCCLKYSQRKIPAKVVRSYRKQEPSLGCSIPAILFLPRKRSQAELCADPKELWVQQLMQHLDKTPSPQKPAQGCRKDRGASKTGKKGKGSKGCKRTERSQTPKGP
Method: as §1, §2, §3, §4, §5, §6, §7, §8, §9, §10, §11

SDF1-β = target: T6, SDF1-β (Homo sapiens, UniProt P48061); experiment: Micro-array analysis of chemokine binding peptides: SDF1-β
T6 construct: purchased 300-28b
T6 sequence (P48061 22-93): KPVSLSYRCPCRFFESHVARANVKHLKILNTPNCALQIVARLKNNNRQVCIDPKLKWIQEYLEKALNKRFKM
Method: as §1, §2, §3, §4, §5, §6, §7, §8, §9, §10, §11

RANTES = target: T7, RANTES (Homo sapiens, UniProt P13501); experiment: Micro-array analysis of chemokine binding peptides: RANTES; conditions: limit = start of the upper 75% of that peptide's response range
T7 construct: purchased 300-06
T7 sequence (P13501 24-91): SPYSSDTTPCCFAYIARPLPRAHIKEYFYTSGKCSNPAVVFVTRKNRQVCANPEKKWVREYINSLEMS
Method: as §1, §2, §3, §4, §5, §6, §7, §8, §9, §10, §11

Eotaxin 2 = target: T8, Eotaxin 2 (Homo sapiens, UniProt O00175); experiment: Micro-array analysis of chemokine binding peptides: Eotaxin 2
T8 construct: purchased 300-33
T8 sequence (O00175 27-119): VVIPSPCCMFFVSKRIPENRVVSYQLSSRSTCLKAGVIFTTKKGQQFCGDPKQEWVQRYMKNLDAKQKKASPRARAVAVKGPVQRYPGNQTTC
Method: as §1, §2, §3, §4, §5, §6, §7, §8, §9, §10, §11

Lymphotactin = target: T9, Lymphotactin (Homo sapiens, UniProt P47992); experiment: Micro-array analysis of chemokine binding peptides: Lymphotactin
T9 construct: purchased 300-20
T9 sequence (P47992 22-114): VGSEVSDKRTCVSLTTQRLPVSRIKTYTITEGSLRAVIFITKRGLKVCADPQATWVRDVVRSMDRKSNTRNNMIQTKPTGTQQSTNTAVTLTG
Method: as §1, §2, §3, §4, §5, §6, §7, §8, §9, §10, §11

GRO-β = target: T10, GRO-β (Homo sapiens, UniProt P19875); experiment: Micro-array analysis of chemokine binding peptides: GRO-β
T10 construct: purchased 300-39
T10 sequence (P19875 35-107): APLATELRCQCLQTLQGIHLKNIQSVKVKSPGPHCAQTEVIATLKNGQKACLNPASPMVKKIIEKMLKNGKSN
Method: as §1, §2, §3, §4, §5, §6, §7, §8, §9, §10, §11

MCP-4 = target: T11, MCP-4 (Homo sapiens, UniProt Q99616); experiment: Micro-array analysis of chemokine binding peptides: MCP-4; conditions: limit = start of the upper 75% of that peptide's response range
T11 construct: purchased 300-24
T11 sequence (Q99616 17-98): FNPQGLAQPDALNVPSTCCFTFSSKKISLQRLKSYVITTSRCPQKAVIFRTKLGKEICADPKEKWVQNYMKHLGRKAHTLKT
Method: as §1, §2, §3, §4, §5, §6, §7, §8, §9, §10, §11

Mig = target: T12, Mig (Homo sapiens, UniProt Q07325); experiment: Micro-array analysis of chemokine binding peptides: Mig
T12 construct: purchased 300-26
T12 sequence (Q07325 23-125): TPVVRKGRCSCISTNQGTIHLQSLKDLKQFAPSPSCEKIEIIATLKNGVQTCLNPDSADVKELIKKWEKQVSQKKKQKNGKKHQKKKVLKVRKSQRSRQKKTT
Method: as §1, §2, §3, §4, §5, §6, §7, §8, §9, §10, §11

SDF1-α = target: T13, SDF1-α (Homo sapiens, UniProt P48061); experiment: Micro-array analysis of chemokine binding peptides: SDF1-α
T13 construct: purchased 300-28a
T13 sequence (P48061 22-89 limits assumed): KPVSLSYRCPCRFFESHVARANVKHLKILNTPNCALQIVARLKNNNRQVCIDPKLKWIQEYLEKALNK
Method: as §1, §2, §3, §4, §5, §6, §7, §8, §9, §10, §11

IL-8 = experiment: Micro-array analysis of chemokine binding peptides: IL-8
Chain of IL-8 (P10145 28-99 limits assumed): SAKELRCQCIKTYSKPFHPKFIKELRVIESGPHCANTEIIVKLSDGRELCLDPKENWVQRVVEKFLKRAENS
Method: as §1, §2, §3, §4, §5, §6, §7, §8, §9, §10, §11

MCP-2 = target: T14, MCP-2 (Homo sapiens, UniProt P80075); experiment: Micro-array analysis of chemokine binding peptides: MCP-2
T14 construct: purchased 300-15
T14 sequence (P80075 24-99): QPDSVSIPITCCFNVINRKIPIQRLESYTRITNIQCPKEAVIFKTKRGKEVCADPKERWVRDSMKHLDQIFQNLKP
Method: as §1, §2, §3, §4, §5, §6, §7, §8, §9, §10, §11

Fractalkine = target: T15, Fractalkine (Homo sapiens, UniProt P78423); experiment: Micro-array analysis of chemokine binding peptides: Fractalkine
T15 construct: purchased 300-31
T15 sequence (P78423 25-100 limits assumed): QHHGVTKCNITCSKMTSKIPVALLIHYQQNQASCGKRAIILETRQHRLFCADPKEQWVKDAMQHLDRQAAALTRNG
Method: as §1, §2, §3, §4, §5, §6, §7, §8, §9, §10, §11

TECK = target: T16, TECK (Homo sapiens, UniProt O15444); experiment: Micro-array analysis of chemokine binding peptides: TECK
T16 construct: purchased 300-45
T16 sequence (O15444 24-150): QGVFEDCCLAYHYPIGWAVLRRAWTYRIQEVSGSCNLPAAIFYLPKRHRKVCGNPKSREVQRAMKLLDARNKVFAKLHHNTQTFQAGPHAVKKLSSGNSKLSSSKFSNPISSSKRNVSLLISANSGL
Method: as §1, §2, §3, §4, §5, §6, §7, §8, §9, §10, §11

Eotaxin 3 = target: T17, Eotaxin 3 (Homo sapiens, UniProt Q9Y258); experiment: Micro-array analysis of chemokine binding peptides: Eotaxin 3
T17 construct: purchased 300-48
T17 sequence (Q9Y258 24-94): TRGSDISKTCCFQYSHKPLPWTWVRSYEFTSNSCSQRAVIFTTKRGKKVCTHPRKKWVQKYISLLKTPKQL
Method: as §1, §2, §3, §4, §5, §6, §7, §8, §9, §10, §11

MCP-1 = target: T18, MCP-1 (Homo sapiens, UniProt P13500); experiment: Micro-array analysis of chemokine binding peptides: MCP-1
T18 construct: purchased 300-04
T18 sequence (P13500 24-99): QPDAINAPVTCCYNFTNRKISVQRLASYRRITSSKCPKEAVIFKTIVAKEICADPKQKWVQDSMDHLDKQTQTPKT
Method: as §1, §2, §3, §4, §5, §6, §7, §8, §9, §10, §11

MDC 69 = target: T19, MDC 69 (Homo sapiens, UniProt O00626); experiment: Micro-array analysis of chemokine binding peptides: MDC 69
T19 construct: MDC(69aa), (CCL22 cat.no.300-36A); purchased 300-36A
T19 sequence (O00626 25-93): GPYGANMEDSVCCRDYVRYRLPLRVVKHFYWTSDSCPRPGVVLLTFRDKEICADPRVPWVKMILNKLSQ
Method: as §1, §2, §3, §4
(5) Primary Antibody (Ab) Labeling: The slides were incubated with the Primary Ab (1 mg/ml diluted ×2500 (Wash Reagent), 300 μl; Mouse Anti-M13 monoclonal Ab; Amersham Biosciences, UK; Product Code 27-9420-01) for 45 minutes at RT. […]
as §11

[1] = limit = start of the upper 75% of that peptide's response range

binding to Eotaxin with relatively high affinity (Relative Fluorescence Units) (Eotaxin; [1]): > 10,000 RFU
binding to BCA-1, stated in words (BCA-1): bound
binding to I-TAC with relatively high affinity (Relative Fluorescence Units) (I-TAC; [1]): > 10,000 RFU
binding to I-309 with relatively high affinity (Relative Fluorescence Units) (I-309; [1]): > 10,000 RFU
binding to Exodus-2, stated in words (Exodus-2): bound
binding to SDF1-β, stated in words (SDF1-β): bound
binding to RANTES with relatively high affinity (Relative Fluorescence Units) (RANTES): > 10,000 RFU
binding to Eotaxin 2 with relatively high affinity (Relative Fluorescence Units) (Eotaxin 2; [1]): > 10,000 RFU
binding to Lymphotactin, stated in words (Lymphotactin): bound
binding to GRO-β with relatively high affinity (Relative Fluorescence Units) (GRO-β; [1]): > 10,000 RFU
binding to MCP-4 with relatively high affinity (Relative Fluorescence Units) (MCP-4): > 10,000 RFU
binding to Mig with relatively high affinity (Relative Fluorescence Units) (Mig; [1]): > 10,000 RFU
binding to SDF1-α, stated in words (SDF1-α): bound
binding to IL-8 with relatively high affinity (Relative Fluorescence Units) (IL-8; [1]): > 10,000 RFU
binding to MCP-2 with relatively high affinity (Relative Fluorescence Units) (MCP-2; [1]): > 10,000 RFU
binding to Fractalkine, stated in words (Fractalkine): bound
binding to TECK, stated in words (TECK): bound
binding to Eotaxin 3 with relatively high affinity (Relative Fluorescence Units) (Eotaxin 3; [1]): > 10,000 RFU
Substance: DYDY (listed as Homo sapiens) [Ph-p32]

binding to Eotaxin, stated in words (Eotaxin): bound
binding to BCA-1, stated in words (BCA-1): bound
binding to I-TAC, stated in words (I-TAC): bound
binding to I-309, stated in words (I-309): bound
binding to MCP-1, stated in words (MCP-1): bound
binding to RANTES with relatively high affinity (Relative Fluorescence Units) (RANTES): > 15,000 RFU
binding to Eotaxin 2, stated in words (Eotaxin 2): bound
binding to Lymphotactin, stated in words (Lymphotactin): bound
binding to GRO-β, stated in words (GRO-β): bound
binding to MCP-4 with relatively high affinity (Relative Fluorescence Units) (MCP-4): > 15,000 RFU
binding to Mig, stated in words (Mig): bound
binding to IL-8, stated in words (IL-8): bound
binding to MCP-2, stated in words (MCP-2): bound
binding to Fractalkine, stated in words (Fractalkine): bound
binding to MDC 69, stated in words (MDC 69): bound
binding to TECK, stated in words (TECK): bound
binding to Eotaxin 3, stated in words (Eotaxin 3): bound
Substance: HHTCSLHFP [Ph-p16]
